Patent publication US20240368668A1, “SUBSTRATES AND BIOMARKERS OF ADAMTS7” (The Broad Institute, Inc., priority 2021, published 2024)
Square brackets hold non-standard residues; d marks the D form. Ends that are not written are not given here. deamidated = deamidated asparagine; Met(O) = CS(=O)CC[C@H](N)C(=O)O

Each substance was assayed against T1, mouse ADAMTS7 (Mus musculus, UniProt Q68SA9) (assay: TMT10 TAILS N-terminomics, SMC1 experiment (Ad-mADAMTS7 WT vs EQ vs Luc, technical replicates, trypsin digest)). Conditions: TAILS neo-N-terminal peptide abundance; log fold change, Ad-mADAMTS7 WT over Luc.
T1 construct: Full-length mouse Adamts7 1-1857 (Uniprot Q68SA9, WT or E373Q catalytic mutant); expressed in transfected cells; host or cells: Human Coronary Artery Smooth Muscle Cells (HCA-SMC, Lonza), adenovirus 50 MOI
T1 sequence (Q68SA9 221-1657): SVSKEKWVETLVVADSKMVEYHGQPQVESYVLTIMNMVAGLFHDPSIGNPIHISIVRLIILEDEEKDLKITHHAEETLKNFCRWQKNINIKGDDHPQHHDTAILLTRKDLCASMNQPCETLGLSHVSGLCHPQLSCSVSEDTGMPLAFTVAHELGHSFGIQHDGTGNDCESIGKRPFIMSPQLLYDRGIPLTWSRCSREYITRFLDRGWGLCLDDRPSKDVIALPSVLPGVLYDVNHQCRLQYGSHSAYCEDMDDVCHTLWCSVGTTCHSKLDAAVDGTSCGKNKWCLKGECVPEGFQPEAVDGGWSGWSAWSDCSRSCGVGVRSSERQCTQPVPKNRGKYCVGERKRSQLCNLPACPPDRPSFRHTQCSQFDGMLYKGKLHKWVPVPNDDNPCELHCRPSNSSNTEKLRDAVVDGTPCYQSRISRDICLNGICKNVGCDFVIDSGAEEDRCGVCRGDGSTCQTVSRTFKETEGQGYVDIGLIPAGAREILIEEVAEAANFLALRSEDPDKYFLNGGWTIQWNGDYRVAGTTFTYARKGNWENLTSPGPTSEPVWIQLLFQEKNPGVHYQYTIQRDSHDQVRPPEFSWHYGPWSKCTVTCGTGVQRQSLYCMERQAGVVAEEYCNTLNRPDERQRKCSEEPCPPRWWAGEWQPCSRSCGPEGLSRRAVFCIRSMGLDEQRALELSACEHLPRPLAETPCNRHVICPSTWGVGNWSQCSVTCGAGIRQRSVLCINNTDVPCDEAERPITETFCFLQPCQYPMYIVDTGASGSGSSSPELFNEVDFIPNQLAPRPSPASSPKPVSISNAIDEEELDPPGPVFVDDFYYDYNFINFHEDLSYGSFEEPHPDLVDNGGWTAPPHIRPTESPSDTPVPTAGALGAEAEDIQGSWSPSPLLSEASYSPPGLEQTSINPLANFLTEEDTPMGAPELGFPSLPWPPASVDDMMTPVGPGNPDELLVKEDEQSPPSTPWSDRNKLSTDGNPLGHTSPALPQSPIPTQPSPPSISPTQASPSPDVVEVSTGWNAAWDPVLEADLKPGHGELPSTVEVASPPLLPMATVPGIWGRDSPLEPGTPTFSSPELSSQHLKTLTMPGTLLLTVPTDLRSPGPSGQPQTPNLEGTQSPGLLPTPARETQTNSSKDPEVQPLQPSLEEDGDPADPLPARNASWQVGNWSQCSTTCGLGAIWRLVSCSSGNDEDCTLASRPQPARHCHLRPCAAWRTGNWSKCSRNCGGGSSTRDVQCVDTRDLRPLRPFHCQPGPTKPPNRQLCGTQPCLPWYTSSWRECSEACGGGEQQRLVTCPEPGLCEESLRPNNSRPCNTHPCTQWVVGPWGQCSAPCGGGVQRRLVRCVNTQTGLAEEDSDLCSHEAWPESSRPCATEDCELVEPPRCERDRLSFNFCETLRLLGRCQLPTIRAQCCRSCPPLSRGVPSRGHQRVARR
Format: cell-based
Outline: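 Full-length mouse ADAMTS7 (WT or E373Q mutant, C-terminal 3xFLAG) or luciferase was transduced via adenovirus, 50 MOI, into HCA-SMC (SMC1, SMC2) or HUVEC. SMC1: pooled media, technical triplicates 400 ug; SMC2: process triplicates 300 ug; HUVEC: process triplicates 200 ug, bFGF2 10 ng/ml.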
Substance “COL1A2_866 (LLGAPGILGLPGSR; listed as Homo sapiens)” has a logFC.mWT.over.Lux of 3.48. “COL1A2_731 (AAGQPGAKGER; listed as Homo sapiens)” was tested, and the logFC.mWT.over.Lux was 0.84. “CLEC11A_50 (HLQEALGLPAGR; listed as Homo sapiens)” was tested, and the logFC.mWT.over.Lux was 1.08. “COL8A1_90 (MKEIQPAPR; listed as Homo sapiens)” showed a logFC.mWT.over.Lux of 1.10. “COL1A2_113 (FQGPAGEPGEPGQTGPAGAR; listed as Homo sapiens)” was tested, and the logFC.mWT.over.Lux was 1.66. Substance “NID2_291 (HSSVPLGR; listed as Homo sapiens)” has a logFC.mWT.over.Lux of 3.96. “CDC37_43 (FQKEKEELDR; listed as Homo sapiens)” gave a logFC.mWT.over.Lux of 1.75. “COL1A2_681 (VGAPGPAGATGDR; listed as Homo sapiens)” gave a logFC.mWT.over.Lux of 1.27. With “COL4A2_71 (YNGPPGLQGFPGLQGR; listed as Homo sapiens)” the logFC.mWT.over.Lux was 1.77. Work on “NUCB1_317 (FLASTQR; listed as Homo sapiens)” yielded a logFC.mWT.over.Lux of 4.76. Work on “COL1A2_305 (LTGAKGAAGLPGVAGAPGLPGPR; listed as Homo sapiens)” yielded a logFC.mWT.over.Lux of 1.46. With “MAP4_816 (VASTGPSSR; listed as Homo sapiens)” the logFC.mWT.over.Lux was 1.44. “PXDN_1341 (SYQEDKPTKKTR; listed as Homo sapiens)” gave a logFC.mWT.over.Lux of 6.62. In the case of “OS9_55 (SQSSDVVIVSSKYKQR; listed as Homo sapiens)”, the logFC.mWT.over.Lux is reported as 2.23. Substance “MAN2A1_51 (LQEKIDHLER; listed as Homo sapiens)” has a logFC.mWT.over.Lux of 2.04. “ECM1_43 (YAAPPSPPLSR; listed as Homo sapiens)” gave a logFC.mWT.over.Lux of 0.63. “PXDN_1393 (QKTITDLR; listed as Homo sapiens)” showed a logFC.mWT.over.Lux of 4.88. Work on “COL4A2_172 (YALPKEER; listed as Homo sapiens)” yielded a logFC.mWT.over.Lux of 5.97. In the case of “OS9_54 ([code q]SQSSDVVIVSSKYKQR; also: modified N-terminal Gln; listed as Homo sapiens)”, the logFC.mWT.over.Lux is reported as 2.67. With “NUCB1_228 (LKEVWEELDGLDPNR; listed as Homo sapiens)” the logFC.mWT.over.Lux was 1.70. For “NUCB1_389 (LQQAVLHMEQR; listed as Homo sapiens)”, the logFC.mWT.over.Lux was 2.25. “COL1A2_91 (GPMGLMGPR; listed as Homo sapiens)” gave a logFC.mWT.over.Lux of 1.09. “COL1A2_389 (SAGPPGPPGLR; listed as Homo sapiens)” showed a logFC.mWT.over.Lux of 1.12. With “COL1A2_1127 (SLRPKDYEVDATLKSLNNQIETLLTPEGSR; listed as Homo sapiens)” the logFC.mWT.over.Lux was 2.23. “MMP1_24 (LETQEQDVDLVQKYLEKYYNLKN(deamidated)DGR; listed as Homo sapiens)” showed a logFC.mWT.over.Lux of 2.23. Substance “POLR3G_88 (LFCSHWSHIPGFK; listed as Homo sapiens)” has a logFC.mWT.over.Lux of 1.51. “COL1A2_1028 (LQGLPGIAGHHGDQGAPGSVGPAGPR; listed as Homo sapiens)” showed a logFC.mWT.over.Lux of 1.51. Substance “NID2_374 (VGGPDLKGQVEPWDER; listed as Homo sapiens)” has a logFC.mWT.over.Lux of 4.80. “COL1A2_960 (AGAPGPHGPVGPAGKHGNR; listed as Homo sapiens)” gave a logFC.mWT.over.Lux of 2.56. “MAP1B_1065 (LTTPTKQLGAQSPGR; listed as Homo sapiens)” was tested, and the logFC.mWT.over.Lux was 1.11. Substance “PAPPA_41 (AAGPATCATR; listed as Homo sapiens)” has a logFC.mWT.over.Lux of 3.83. Substance “CDH11_467 (HQEAKVPVAIR; listed as Homo sapiens)” has a logFC.mWT.over.Lux of 2.02. “POSTN_754 (IITGPEIKYTR; listed as Homo sapiens)” was tested, and the logFC.mWT.over.Lux was 1.77. “COL1A2_630 (VGTAGPSGPSGLPGER; listed as Homo sapiens)” was tested, and the logFC.mWT.over.Lux was 1.18. “COL1A2_80 (QYDGKGVGLGPGPMGLMGPR; listed as Homo sapiens)” was tested, and the logFC.mWT.over.Lux was 2.55. “MAP4_815 (AVASTGPSSR; listed as Homo sapiens)” gave a logFC.mWT.over.Lux of 1.29. With “POSTN_413 (FSDDTLSMDQR; listed as Homo sapiens)” the logFC.mWT.over.Lux was 2.29. In the case of “PPP1R18_295 (LSETLTR; listed as Homo sapiens)”, the logFC.mWT.over.Lux is reported as 3.60. “NID2_951 (YAYPGAR; listed as Homo sapiens)” was tested, and the logFC.mWT.over.Lux was 3.35. In the case of “POSTN_790 (FIEGGDGHLFEDEEIKR; listed as Homo sapiens)”, the logFC.mWT.over.Lux is reported as 0.87. Work on “NID2_467 (LEDNIGSNTEVFTYNAANKETCEHNHR; listed as Homo sapiens)” yielded a logFC.mWT.over.Lux of 2.58. “COL5A1_544 (SQAQAILQQAR; listed as Homo sapiens)” was tested, and the logFC.mWT.over.Lux was 0.87. Work on “LTBP2_1602 (EAGVHFR; listed as Homo sapiens)” yielded a logFC.mWT.over.Lux of 1.63. “PDLIM4_104 (IDPEIQDGSPTTSR; listed as Homo sapiens)” was tested, and the logFC.mWT.over.Lux was 1.00. Substance “COL1A2_1037 (HHGDQGAPGSVGPAGPR; listed as Homo sapiens)” has a logFC.mWT.over.Lux of 2.30. With “COL1A2_270 (VGNAGPAGPAGPR; listed as Homo sapiens)” the logFC.mWT.over.Lux was 3.51. “COL1A2_425 (ASGPAGVR; listed as Homo sapiens)” was tested, and the logFC.mWT.over.Lux was 1.17. For “COL18A1_1505 (LQPPVVQLHDSNPYPR; listed as Homo sapiens)”, the logFC.mWT.over.Lux was 1.41. “PSAP_171 (F[Met(O)]ANIPLLLYPQDGPR; listed as Homo sapiens)” was tested, and the logFC.mWT.over.Lux was 1.13. With “POSTN_807 (LLQGDTPVR; listed as Homo sapiens)” the logFC.mWT.over.Lux was 1.10. “MGAT4B_28 (LSGQKGDVVDVYQR; listed as Homo sapiens)” was tested, and the logFC.mWT.over.Lux was 1.43.
